One block for each binder: values may come before it.
What was measured:
[1] = target: T1, cell membrane-bound human 4-1BB (endogenous, on ionomycin/PMA stimulated CCRF-CEM cells or primary CD8+ T … (human, UniProt Q07011 24-255)); assay: flow cytometry on PMA/ionomycin stimulated CEM cells, anti-penta-His Alexa Fluor-488 detection
T1 construct: also called cell membrane-expressed human 4-1 BB; 4-1BB on CEM cells
Protocol: Assay setup: Ankyrin repeat protein binding to cell membrane-bound human 4-1 BB on cells was measured by flow cytometry using the T lymphoblast cell line CCRF-CEM (ATCC® CCL-119™) stimulated with ionomcycin/PMA (phorbol 12-myristate 13-acetate) to express 4-1 BB. CEM cells cultured in RPMI medium supplemented with 10% (v/v) FBS+1% PenStrep were harvested and stimulated overnight in 96-well U-bottom plates using the same medium plus PMA (10 ng/ml) and ionomycin (500 ng/ml). […] Stimulated CEM cells were harvested, then 30,000 cells were incubated with increasing concentrations of His-tagged ankyrin repeat proteins in FACS buffer (PBS+2% (v/v) FBS+0.1% sodium azide) for 30 minutes on ice. […] After washing with PBS, cells were stained with Live/Dead Aqua dye (Thermo Fisher, No. L34957) and analyzed using a BD FACS Canto II or AttuneNxT cytometer.
The multivalent ankyrin repeat proteins were tested, together with binding proteins comprising only one corresponding 4-1 BB-specific ankyrin repeat domain (with our without a linked localizer), for binding to PMA/ionomycin stimulated CEM cells.

[2] = target: T2, biotinylated human 4-1BB (recombinant Fc fusion protein of the extracellular domain of human 4-1BB) (human, UniProt Q07011 24-186, biotinylated (site not stated)); assay: SPR; accurate fit not possible due to slow off-rate
T2 construct: Bought from BPS Bioscience; tie to the Fc fusion is by the Materials paragraph; also called h4-1BB; CD137; not shown: Fc part of the purchased fusion (BPS Bioscience)

T1 sequence (Q07011 24-255 limits assumed): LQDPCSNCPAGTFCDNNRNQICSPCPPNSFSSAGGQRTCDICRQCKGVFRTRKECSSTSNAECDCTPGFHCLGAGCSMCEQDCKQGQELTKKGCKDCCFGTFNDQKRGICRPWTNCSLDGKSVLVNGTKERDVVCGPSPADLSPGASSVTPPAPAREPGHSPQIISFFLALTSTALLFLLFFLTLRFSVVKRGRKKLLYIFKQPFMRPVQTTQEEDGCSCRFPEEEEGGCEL

EC50 (read off the curve) [1]: ~8 nM
B1: DARPin® protein #52 (designed binder)
chain: GSDLGDKLLHAAYYGQDDEVRILLAAGADVNAKDTQGLTPLHLAAAIGHLEIVEVLLKAGADVNAKDAYGETPLHLVASRGHLEIVEVLLKAGADVNAQDYSGRTPADLAAEYGHEDIAEVLQKLNGSPTPTPTTPTPTPTTPTPTPTGSDLGDKLLHAAYYGQDDEVRILLAAGADVNAKDTQGLTPLHLAAAIGHLEIVEVLLKAGADVNAKDAYGETPLHLVASRGHLEIVEVLLKAGADVNAQDYSGRTPADLAAEYGHEDIAEVLQKLN
notes: not shown: TAA-specific ankyrin repeat domain (localizer)

Kd [2]: < 0.02 nM
B2: DARPin® protein #51 (designed binder)
chain: GSDLGQKLLKAAQEGQDDEVRELLKAGADVNAKDLRGITPLHVAAWQGHLEIVEVLLKAGADVNAKDSKGETPLHLAAFRGHLEIVEVLLKAGADVNAQDQQGETPADLAALAGHVDIAEVLQKLNGSPTPTPTTPTPTPTTPTPTPTGSDLGQKLLKAAQEGQDDEVRELLKAGADVNAKDLRGITPLHVAAWQGHLEIVEVLLKAGADVNAKDSKGETPLHLAAFRGHLEIVEVLLKAGADVNAQDQQGETPADLAALAGHVDIAEVLQKLN
notes: as for B1

EC50 (read off the curve) [1]: ~7 nM
B3: DARPin® protein #55 (designed binder)
chain: GSDLGDKLLHAAYYGQDDEVRILLAAGADVNAKDTQGLTPLHLAAAIGHLEIVEVLLKAGADVNAKDAYGETPLHLVASRGHLEIVEVLLKAGADVNAQDYSGRTPADLAAEYGHEDIAEVLQKLNGSPTPTPTTPTPTPTTPTPTPTGSDLGDKLLHAAYYGQDDEVRILLAAGADVNAKDTQGLTPLHLAAAIGHLEIVEVLLKAGADVNAKDAYGETPLHLVASRGHLEIVEVLLKAGADVNAQDYSGRTPADLAAEYGHEDIAEVLQKLNGSPTPTPTTPTPTPTTPTPTPTGSDLGDKLLHAAYYGQDDEVRILLAAGADVNAKDTQGLTPLHLAAAIGHLEIVEVLLKAGADVNAKDAYGETPLHLVASRGHLEIVEVLLKAGADVNAQDYSGRTPADLAAEYGHEDIAEVLQKLN
notes: as for B1

Reference: patent US20220298212A1 (Molecular Partners, published 2022)
